Measurements published in paper PMC3050729, “Novel computational analysis of protein binding array data identifies direct targets of Nkx2.2 in the pancreas”.

T1: Nkx2.2 (in vitro translated) (UniProt P42586 1-273)
T1 sequence: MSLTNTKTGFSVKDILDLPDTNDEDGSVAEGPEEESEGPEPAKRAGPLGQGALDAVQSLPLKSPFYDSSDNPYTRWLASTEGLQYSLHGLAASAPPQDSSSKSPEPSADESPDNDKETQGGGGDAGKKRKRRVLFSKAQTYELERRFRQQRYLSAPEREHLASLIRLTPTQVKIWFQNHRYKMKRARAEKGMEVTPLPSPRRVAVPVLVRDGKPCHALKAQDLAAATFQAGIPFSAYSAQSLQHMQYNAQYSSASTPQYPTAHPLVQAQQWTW

B1: Nkx2.2 AAGT consensus (dsDNA)
DNA 1: TCGACGCGATTTTTCAAGTGGTTTTCAGTAGC
DNA 2: AGCTGCTACTGAAAACCACTTGAAAAATCGCG
B2: Ins2 -144 (dsDNA)
DNA 1: TGCTTTCTGCAGACCTAGCACCAGGCAAGTGTTTGGAAACTGCAGCT
DNA 2: CTGAAGCTGCAGTTTCCAAACACTTGCCTGGTGCTAGGTCTGCAGAA
B3: Ins2 -477 (Ins -471 in probe list) (dsDNA)
DNA 1: AAGCAGAACTCAGGCAGCAAGGTACTTAATGGTCCCTCCTTCTCCATC
DNA 2: AGAGATGGAGAAGGAGGGACCATTAAGTACCTTGCTGCCTGAGTTCT
B4: Nkx6.2 +1669 (+669 in probe list) (dsDNA)
DNA 1: CCGAATCCCGCGCGGGCCACTTACCGGAGCCGGCCAGTCGCGGGTCCCTC
DNA 2: CTGGAGGGACCCGCGACTGGCCGGCTCCGGTAAGTGGCCCGCGCGGGATT
B5: Gcg -1080 (dsDNA)
DNA 1: AGACCATTGAAACAACTGGAGGAGTACTCTGACTGAACTTAATTCTTCAT
DNA 2: AGAATGAAGAATTAAGTTCAGTCAGAGTACTCCTCCAGTTGTTTCAATGG

Biological target: T1, Nkx2.2 (in vitro translated)
Experiment: EMSA; EMSA as in ref 20; buffer, salt, pH and temperature not given
Settings: protein: ivt, label: 32P-dCTP Klenow fill-in, filled in with Klenow

Binder	binding result (5' overhang 4 nt)	binding result (5' overhangs)
B1	binds	–
B2	–	no binding
B3	–	binds
B4	–	no binding
B5	–	no binding
